Measured values from the supplement of paper PMC10567573.

B1: TRIM43 (parent)
chain: RAQMIRNEYRKLHPVLHKEEKQHL
B2: TRIM39 (parent)
chain: CKACITRWWEDLERDFPCPVCRKT

Variants of: B1
Assay: protein stability index of a GFP-peptide fusion (GPS, HEK-293T) (PSI 1-6); higher = more stable
Conditions: c terminus: a fixed tail appended
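Note: lentivirally expressed fusions sorted by FACS into six bins by GFP to DsRed ratio, PSI derived from sequencing read proportions per bin multiplied by bin number.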

Protein stability index, by site and new letter:
K21: V 3.37 | A 2.91 | T 2.92 | I 2.59 | R 3.46 | W 2.51 | Q 4.17 | H 3.15 | P 2.97 | S 2.81 | M 2.54 | G 2.42 | E 4.63 | D 3.82 | C 3.18 | L 2.4 | N 2.77 | Y 2.71 | F 2.58
Q22: F 1.86 | I 2.54 | K 2.99 | A 2.89 | V 2.64 | S 3.3 | N 3.07 | C 2.54 | D 3.65 | Y 2.71 | G 2.34 | R 3.62 | P 3.47 | L 2.33 | H 2.91 | T 2.58 | W 2 | E 3.82 | M 2.3
K18: P 3.48 | H 3.59 | Y 3.09 | A 2.81 | I 2.6 | G 3.37 | S 3.54 | E 4.06 | L 2.95 | F 2.4 | W 2.44 | V 3.26 | C 2.7 | Q 3.49 | R 2.55 | N 3.2 | D 3.45 | M 2.6 | T 3.06
E19: K 3.41 | F 1.98 | Y 1.97 | T 2.82 | A 2.17 | R 2.93 | Q 3.22 | I 1.73 | D 3.02 | W 2.18 | L 2.07 | V 2.25 | N 2.42 | C 2.71 | S 2.92 | G 2.96 | H 2.34 | P 4.02 | M 2.23
E20: N 2.32 | S 2.85 | D 3.38 | Y 1.83 | W 1.66 | H 2.63 | K 2.95 | A 2.32 | T 2.83 | V 1.97 | I 2.42 | L 1.83 | R 1.83 | Q 2.76 | C 2.57 | G 2.29 | P 2.09 | F 1.91 | M 2.29
L24: D 4.51 | T 4.01 | M 3.45 | C 3.65 | W 2.88 | R 3.06 | Y 3.34 | A 3.59 | N 4.01 | S 3.82 | I 3.19 | E 4.61 | Q 3.84 | P 3.5 | F 2.36 | G 3.67 | K 3.77 | V 3.67 | H 3.61
H17: V 3.74 | P 3.42 | N 3.28 | S 2.67 | Y 2.96 | R 3.79 | L 2.93 | W 2.8 | Q 3.07 | T 3.2 | M 2.81
H23: R 2.94 | E 3.81 | W 2.61 | P 3.09 | C 3.51 | L 3.18 | K 3.33 | N 3.13 | A 3.08 | I 2.46 | V 3.17 | Q 3.35 | G 3.63 | T 3.23 | Y 2.74 | M 3.39 | F 2.58 | S 3.45 | D 4.45

Variants of: B2
Assay: as above
Conditions: c terminus: a fixed tail appended

Protein stability index: each site, then its substitutions
E10: V 3.16 | G 3.94 | N 4.11 | H 3.77 | L 3.13 | D 4.11 | S 3.78 | F 3.51 | Q 3.56 | K 3.5 | R 3.06 | Y 3.24 | A 4.08 | C 3.64 | P 3.72 | M 3.64 | W 2.92 | T 4.08 | I 3.65
R7: M 3.72 | H 5.06 | A 4.08 | N 3.89 | Y 4.85 | F 3.79 | G 4.08 | K 3.73 | W 3.97 | Q 3.93 | E 3.73 | I 2.96 | P 3.93 | D 4 | V 3.28 | L 3.58 | T 4.07 | C 3.8 | S 3.98
W8: F 4.17 | C 4.15 | I 4.26 | H 4.66 | V 4.73 | T 4.09 | N 5.12 | S 4.92 | Q 4.83 | R 4.62 | E 4.73 | P 5.08 | K 4.6 | M 4.62 | A 4.07 | Y 4.22 | G 4.8 | L 4.19 | D 4.42
A3: C 3.57 | S 4.21 | M 3.35 | F 3.17 | V 4.17 | P 2.48 | D 4.04 | Y 3.9 | Q 4.06 | I 3.9 | N 4.16 | E 4.12 | T 4.85 | L 3.8 | K 3.06 | R 3.53 | H 3.67 | G 4.09 | W 2.87
C4: I 1.59 | P 2.1 | E 1.88 | H 3.14 | M 1.9 | Y 1.61 | T 2.24 | F 2.45 | G 1.65 | Q 2.41 | V 2.19 | S 2.07 | D 1.75 | W 1.75 | N 2.35 | A 1.72 | K 2.05 | L 1.63 | R 2.18
K2: V 3.53 | T 4.05 | N 4.4 | F 3.34 | Y 4.23 | G 3.59 | W 3.23 | E 4.48 | A 4.08 | Q 4.08 | S 4.59 | R 4.02 | P 4.11 | H 4.08 | I 3.25 | M 3.69 | C 3.64 | D 4.5 | L 3.58
C1: G 1.74 | W 2.56 | Q 2.3 | A 1.94 | R 2.43 | K 1.76 | M 2.26 | T 2.06 | E 2.07 | V 2.27 | F 1.42 | P 2.42 | H 2.16 | N 1.67 | D 2.45 | L 2.31 | S 1.68 | Y 1.72 | I 1.27
W9: K 4.86 | H 5.16 | N 4.52 | G 4.55 | D 4.55 | A 4.23 | I 3.65 | E 4.24 | S 4.56 | T 4.25 | C 4.53 | F 4.07 | P 4.3 | M 4.11 | V 4.31 | Y 3.75 | Q 4.69 | L 3.87 | R 4.47
I5: W 3.99 | M 4.22 | S 4.22 | F 4.22 | P 3.86 | V 3.35 | E 4.6 | R 3.93 | N 4.12 | A 4.25 | Q 4.31 | D 4.36 | K 3.88 | C 4.63 | L 4.25 | Y 4.39 | T 3.99 | G 3.86 | H 4.49
T6: M 3.27 | W 3.36 | D 4.27 | V 2.71 | I 3.01 | N 4.38 | Q 3.77 | K 3.57 | Y 3.33 | E 4.03 | R 3.42 | L 3.58 | S 3.62 | A 3.64 | C 2.57 | G 4.36 | P 3.5 | F 2.95 | H 3.28
